# Reference: patent publication US8487082B2, “Synthetic scFv analogue to the 6313/G2 (anti angiotensin II type 1 receptor) monoclonal antibody variable regions” (Queen Mary & Westfield College, priority 2008, dated 2013)
# Numbering of substitutions follows the chain as printed. “Also recorded” adds a separate entry of the source.
# B1: HuCY: humanised (resurfaced) variant of scFv R6313/G2, SEQ ID NO:27 (protein)
# scFv: QVQLVQSGPELVKPGASVKISCKASGYSFTGYNMNWVKQAPGKSLEWIGNIDPYYGGTTYNQKFKGKATLTVDKSSSTAYMQLKSLRSEDTAVYYCAREVDYWGQGTTVTVSSGGGGSGGGGSGGGGSDIVLTQSPASLAVSLGERATISCRASKSVSTSGYSYMHWYQQKPGQPPRLLIYLVSNLESGVPDRFSGSGSGTDFTLTISSVEAEDVAVYYCQHIRELTRSEGTKLEIKR
# modifications: HuCY
# B2: var3: humanised variant of scFv R6313/G2, framework changes only, SEQ ID NO:28 (protein)
# scFv: B1 scFv with S44G
# modifications: var3
# B3: var4: humanised variant of scFv R6313/G2 with two further changes in VLCDR2 (LVSDLED), SEQ ID NO:29 (protein)
# scFv: B1 scFv with S44G, N185D, S188D
# modifications: var4
# Experiments:
# MCF-7 cells = assay: Cell viability assay (XTT); format: cell-based; details: MCF-7, Losartan alone, all concentrations used
# Procedure: (§1) MCF-7, T47D and MDA-MB-231 breast cancer cells were obtained from The American Tissue Culture Collection (LGC Promochem, Teddington, UK). Rat aortic smooth muscle cells (RASMC) were developed from primary culture (Barker et al., 1996). MCF-7 cells were maintained in Minimal Essential Medium (MEM), T47D and MDA-MB-231 cells in RPMI 1640 medium, and RASMC were maintained in Dulbecco's Modified Eagle's Medium (DMEM). All media were supplemented with 2 mM L-glutamine, 10% fetal bovine serum (FBS), 50 U/ml penicillin and 0.05 mg/ml streptomycin. Cells were maintained at 37° C. in a humidified atmosphere ([…], 5% CO2).
# (§2) Confluent cell monolayers were removed from tissue culture flasks using trypsin/EDTA. Cells (15×10^3 per well) were seeded into 96 well tissue culture plates containing the appropriate medium for each cell line. […] Cell viability was assessed by the ability of metabolically active cells to reduce 2,3-bis[2-Methoxy-4-nitro-5-sulphophenyl]-2H-tetrazolium-5-carboxyanilide inner salt (XTT) to the coloured formazan product. Absorbance was measured using a Multiskan Ascent microplate reader (Thermo Labsystem, Helsinki, Finland) at a wavelength of 450 nm and a reference wavelength of 630 nm. Each measurement was performed in triplicate. IC50s were calculated using a non-linear regression formula using GraphPad Prism v4.0 software (GraphPad Software Inc, San Diego Calif., USA).
# MDA-MB-231 cells = assay: Cell viability assay (XTT); format: cell-based; details: MDA-MB-231, Losartan alone, all concentrations used
# Procedure: as §1, §2
# T47D cells [1] = assay: Cell viability assay (XTT); format: cell-based; details: Homo sapiens, Losartan alone, 25 μmol/L
# Procedure: as §1, §2
# T47D cells [2] = assay: Apoptosis - caspase-3/7 activity; format: cell-based; details: 100 nmol/L angiotensin II, 12 hours
# Source text: Cells were harvested using Trypsin/EDTA and counted.
# [3] = target: peptide antigen EDGIKRIQDDC-biotin (from AT1-receptor N-terminal region) (Rattus norvegicus, UniProt P25095); assay: Antigen binding ELISA of scFv variants; details: for activity in ELISA compared with murine scFv (12D): FIG. 13, indirect comparison against purified IgM; for binding to peptide antigen by ELISA versus murine scFv (12D and 11B): absorbance 450 nm per mg protein/well, FIG. 12
# Procedure: Enzyme-linked immunosorbant assays (ELISAs) were carried out in Maxisorp 96-well plates coated with Peptide antigen EDGIKRIQDDC-biotin (SEQ ID NO:14) (2-8 ug/ml in carbonate buffer pH 9.6) overnight at 4 or 37 C. The coated wells were blocked using 1% alkaline soluble casein (Blocking buffer) for 1 h at RT, then washed three times with PBS containing 0.1% v/v Tween 20. ScFv samples diluted between 1:1 to 1:100 in PBS-T were added and incubated for 1 h at RT before washing as before. A secondary HRP-conjugated anti-His-Tag antibody was then added (diluted 1:1000 in blocking buffer) for 1 h at RT. Wells were then washed three times in PBS-T then twice with PBS (without Tween 20). 100 μl of TMB substrate solution was added and colour was allowed to develop for 30 min, at which time 100 μl of 2M sulphuric acid was added to stop the reaction. Absorbance at 450 nm was read on a plate reading spectrophotometer. Protein concentrations were determined using an Eppendorf Biophotometer reading at 280 nm and using an extinction coefficient for the scFv of 1.7 as above.
# [4] = target: biotinylated peptide antigen (AT1 receptor) (Rattus norvegicus, UniProt P25095); assay: Quartz crystal microbalance binding (Attana 100); details: 9 μg/ml, 100 second injection period
# Procedure: Data were obtained comparing the characteristics of binding of the scFv variants and IgM to immobilised peptide antigen using the Attana 100 Quartz Crystal Microbalance. This involved use of a streptavidin (0.1 mg/ml)-coated biotin “chip” (gold-plated quartz crystal in an Attana 100 Biosensor (Quartz crystal microbalance (QCM)) (Attana AB, Stockholm, Sweden). Peptide antigen corresponding to that sequence used to raise the original murine hybridoma, biotinylated at the C-terminus, was then run across the chip at a concentration of 4 μg/ml to create a binding target for scFvs and IgM that were subsequently run across the surface of the QCM chip. Attester software (Attana, Sweden) was used to monitor changes in resonance frequency of the QCM chip in response to binding of a test antibody to the antigen. The magnitude of deflection in Hz over the period of sample injection of 100 s in Hz/second was determined for each antibody at a concentration of 9 μg/ml. The rate at which the antibody was then released from the QCM chip was also measured in Hz/second from the straight-line portion of the biosensor trace as antibody gradually departed from the chip and as the resonance frequency of the chip decreased. Running buffer was PBS containing 0.005% Tween 20 (PBST) and this was also used to make antibody dilutions to give a final protein concentration of 9 μg/ml in each case. The Attana 100 was set up with a 50 μl injection loop and was running with a constant pump speed of 20 μl/min. Samples and PBST buffer controls were injected over 100 seconds giving a sample volume across the chip of 33 μl. 100 mM (6.6 μl volume) phosphoric acid solution was used to regenerate the strepavidin-antigen surface between individual experimental sample runs.
Molecule,activity in ELISA compared with murine scFv (12D) [3],binding to peptide antigen by ELISA versus murine scFv (12D and 11B) [3],"change in resonance frequency (apparent on-rate, Hz/second) compared with IgM [4]",also measured
"CCCCc1nc(Cl)c(CO)n1Cc1ccc(-c2ccccc2-c2nn[nH]n2)cc1 [Losartan, reference compound]",,,,effect on cell survival (MCF-7 cells): unaffected; effect on cell survival (MDA-MB-231 cells): unaffected; inhibition at 25 µM (T47D cells [1]): 43%
"angiotensin II (DRVYIHPF; Angiotensin-2; UniProt P01019 25-32, looked up) [peptide hormone added at 100 nmol/L in the cell assays, reference compound]",,,,caspase-3/7 activity compared with untreated control (T47D cells [2]): inhibited caspase-3/7 activity
B1,higher activity,more strongly; also recorded: increased binding,,
B2,,more strongly; also recorded: increased binding,significantly greater increases in resonance frequency; also recorded: significantly greater changes in resonance frequency,
B3,higher activity,more strongly; also recorded: increased binding; also recorded: most significantly increased binding,significantly greater increases in resonance frequency; also recorded: significantly greater changes in resonance frequency,"increase in binding to the antigen compared with murine scFv ([3]; ELISA, same amount and purity of scFv): 5-10 fold"
